The supplement of paper PMC10567573
± gives the standard deviation.

Experiment: protein stability index of a GFP-peptide fusion (GPS, HEK-293T) (PSI 1-6); higher = more stable
[1] = treatment: DMSO, c terminus: a fixed tail appended
[2] = treatment: MLN4924 1 uM, 8 h, c terminus: a fixed tail appended
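Further: 24-mer peptide tiles fused after GFP, lentivirally expressed, FACS-sorted into six equal bins by GFP/DsRed ratio, decoded by Illumina sequencing, PSI is the read-weighted mean bin number.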

Row | Sequence | protein stability index [1] | protein stability index [2] | protein stability index (treatment: DMSO, c terminus: native) | protein stability index (treatment: MLN4924 1 uM, 8 h, c terminus: native)
1 | VSQQTGSPGKQPGENSDCHRDSSQ [ZNF8] | 5.31 ± 0.47 | 5.47 ± 0.21 |  | 
2 | VTINIQDLLSCSNFAVQHRYLFEE [MATN2] | 2.86 ± 0.35 | 2.87 ± 0.73 |  | 
3 | VTPRTALLTWTEPPVRPAGYLLSF [TNXB] | 2.42 ± 0.29 | 2.2 ± 0.26 |  | 
4 | VVAMARKLQDVFEMRFAKMPDEPV [BRD3] | 2.49 ± 0.29 | 2.64 ± 0.35 |  | 
5 | VVGALPAEHQFSFMEKRNQWLVSQ [TRAF3IP2] | 2.36 ± 0.24 | 2.65 ± 0.26 |  | 
6 | VVGDNAVGKTRLICARACNTTLTQ [RHOBTB1] | 2.69 ± 0.32 | 2.73 ± 0.38 |  | 
7 | VVGTPCYISPELCEGKPYNQKSDI [NEK8] | 3.29 ± 0.38 | 3.49 ± 0.56 |  | 
8 | VVHDWLYSYVYQDGLRLLGARARG [SOAT2] | 2.46 ± 0.44 | 2.28 ± 0.25 |  | 
9 | VVSMTTVGYGDMYPVTIGGKIVGS [KCNA1] | 2.29 ± 0.36 | 2.14 ± 0.24 |  | 
10 | VYSDHTNTNNLTFLMDLPSAGRSM [RNF180] | 2.29 ± 0.45 | 2.79 ± 0.42 |  | 
11 | WDPNTGFDLNNLDPELKNLFDMCG [WASL] | 3.05 ± 0.36 | 3.1 ± 0.37 |  | 
12 | WEISWPLEQRGTHAVVGVATALAP [SPSB2] | 2.44 ± 0.26 | 2.73 ± 0.36 |  | 
13 | WIGNEWLPSLGLPQYRSYFMECLV [PPFIA4] | 3.67 ± 0.24 | 2.15 ± 0.088 |  | 
14 | WIHRPGCRCKNSNTVYCKLESCPS [SPRY1] | 2.62 ± 0.26 | 3.21 ± 0.78 |  | 
15 | WIIKKHNTNSDPLDPSFPVEFVRH [POMT2] | 2.54 ± 0.29 | 2.39 ± 0.51 |  | 
16 | WKNFDERKEMATILSKMPKPKPPP [CCNC] | 3.63 ± 0.28 | 3.64 ± 0.31 |  | 
17 | WLMTYVGAVFNGITLLILAELLIF [RTN3] | 2.49 ± 0.28 |  |  | 
18 | WLSTAPTEPLTHWYQVRCLFQSPL [CARM1] | 2.44 ± 1 | 2.19 ± 0.4 |  | 
19 | WLSYRLLKASEPGLFAVGEHTGEV [PCDHGA10] | 2.35 ± 0.11 | 2.31 ± 0.16 |  | 
20 | WPARVLDISLGQKEDGEPSWREAK [PWWP2B] | 4.18 ± 0.12 | 4.27 ± 0.11 |  | 
21 | WTHDGIDINNNFPDLNTLLWEAED [CPXM2] | 3.44 ± 0.098 | 3.8 ± 0.45 |  | 
22 | WTLRRTKELRKDYQGPGTRRLQEV [DYRK1B] | 3.11 ± 0.32 | 3.1 ± 0.32 |  | 
23 | YAMGITECDNMLMLLSVSQSMSEE [SEPHS2] | 2.16 ± 0.31 | 2.44 ± 0.22 |  | 

Row | Sequence | protein stability index [1] | protein stability index [2] | protein stability index (treatment: DMSO, c terminus: native) | protein stability index (treatment: MLN4924 1 uM, 8 h, c terminus: native)
24 | YFFKRPYPFVLFYSKFHGLEMCVD [KMT2E] | 2.75 ± 1 | 3.19 ± 0.55 |  | 
25 | YFFLYQYCSIHCSDRKQVRNIAN [CSTF3] |  |  | 3.03 ± 1.1 | 3.22 ± 0.71
26 | YFTNRKVNSVCWASLNHLDSHILL [DCAF4] | 2.82 ± 0.56 | 2.42 ± 0.21 |  | 
27 | YFVSESFEDAKEKMREFTKTIKRP [TPH1] | 3.15 ± 0.19 | 3.41 ± 0.14 |  | 
28 | YGVASCEACKAFFKRTIQGSIEYS [ESRRA] | 2.34 ± 0.22 | 2.52 ± 0.072 |  | 
29 | YIPRRLEEAAMQKCLVTEAQTLLR [RSAD1] | 2.34 ± 0.23 | 2.63 ± 0.17 |  | 
30 | YIPVIKRALNSVPVIIAAVGTRQN [RHOBTB3] | 2.35 ± 0.52 | 2.24 ± 0.35 |  | 
31 | YISETVLAIDAIHQLGFIHRDIKP [STK38L] | 2.33 ± 0.74 | 2.56 ± 0.24 |  | 
32 | YLDLPGSRQGSAEALRALQEGLWL [PKD2L1] | 2.71 ± 0.27 | 2.64 ± 0.34 |  | 
33 | YLNYYQGMLDVADESLTDLEAQPY [P3H4] | 2.8 ± 0.15 | 2.81 ± 0.14 |  | 
34 | YLRYVRRLDFFEKPDYEYLRTLFT [CSNK1G1] | 2.34 ± 0.48 | 2.24 ± 0.38 |  | 
35 | YPAMTFYSPAVMNYSIPSNVTNLE [ESR2] | 2.63 ± 0.61 | 2.93 ± 0.25 |  | 
36 | YQHFLQDCVDGLFKEVKEKFKGWV [DLC1] | 2.26 ± 0.49 | 2.02 ± 0.11 |  | 
37 | YQLADWCLHHICTNYNNVCRKFPR [RHOBTB2] | 2.25 ± 0.52 | 2.23 ± 0.14 |  | 
38 | YQPLVTMDDAMERTVQSFRHLRRV [NSDHL] | 3.14 ± 0.24 | 3.22 ± 0.31 |  | 
39 | YQRWIYRVDPTRVNEFGMSGEDPT [CLPTM1] | 2.6 ± 0.34 | 2.72 ± 0.3 |  | 
40 | YQTEQSLRQLVESDINSLRRILDE [KRT33B] | 3.44 ± 0.16 | 3.61 ± 0.3 |  | 
41 | YRERRDSDTYRCEERSPSFGEDYY [CLK3] | 4.37 ± 0.2 | 4.29 ± 0.21 |  | 
42 | YRQHCTLELGSYIKDLSVVHSDLS [CTDNEP1] | 2.4 ± 0.41 | 2.34 ± 0.25 |  | 
43 | YSYRRLGEEALSLQALDPQQCVDK [SLC22A15] | 4.05 ± 0.45 | 4.05 ± 0.31 |  | 
44 | YVDIHTGLSGSGVAFVCAFSEALA [PYCR3] | 2.72 ± 1.2 | 2.4 ± 1 |  | 
45 | YVTPSDFDQLKQFLTFDKQVLRFY [EFHC1] | 2.03 ± 0.32 | 2.28 ± 0.29 |  | 
46 | YYKPGLLMMCFILPTLVPWYFWGE [SCD] | 3.24 ± 0.7 | 2.83 ± 0.52 |  | 
